According to patent US20050106100:

What was measured:
[1] = molecular target: T1, Ac-PRR˜Cha-TA-Ambh-Hynic
T1 chain: PRRXTA

[2] = molecular target: T2, Ac-NLys-PLG˜Hphe-RLA-Ahxh-Hynic (not fully specified)
T2 chain: XPLGXRLA

[3] = molecular target: T3, Ac-PL-NLys˜LL-Ambh-Ac[C14] (not fully specified)
T3 chain: PLXLL

[4] = molecular target: T4, Ac-P-Cit-G˜Hphe-Cha-A-Ahxh-Ac[C14] (not fully specified)
T4 chain: PXGXXA

[5] = molecular target: T5, Ac-PLG-LYV-Ahxh-Ac[C14]
T5 chain: PLGLYV

[6] = molecular target: T6, Ac-POG˜Hphe-L-Nle-Ahxh-Hynic
T6 chain: PXGXLX

[7] = molecular target: T7, Ac-P-O(Me)2-G˜Hphe-L-Nle-Ahxh-Hynic (not fully specified)
T7 chain: PXGXLX

[8] = molecular target: T8, Ac-PLG˜L-Pya-L-Ahxh-Ac[C14] (not fully specified)
T8 chain: PLGLXL

[9] = molecular target: T9, Ac-PLG˜Hphe-RLT-Ahxh-Hynic
T9 chain: PLGXRLT

[10] = molecular target: T10, Ac-P-NLeu-G˜LL-Ahxh-Ac[C14] (not fully specified)
T10 chain: PXGLL

[11] = molecular target: T11, Ac-PLG˜Hphe-KL-Ahxh-Ac[C14] (not fully specified)
T11 chain: PLGXKL

[12] = molecular target: T12, Ac-PLG˜LYS-Ahxh-Ac[C14] (not fully specified)
T12 chain: PLGLYS

[13] = molecular target: T13, Ac-P-Cit-G˜Igl-LA-Ahxh-Hynic (not fully specified)
T13 chain: PXGXLA

[14] = molecular target: T14, Ac-PRG˜Hphe-Dab-A-Ahxh-Hynic
T14 chain: PRGXXA

[15] = molecular target: T15, Ac-NLys-PLG˜LL-Ahxh-Hynic (not fully specified)
T15 chain: XPLGLL

[16] = molecular target: T16, Ac-PLG˜LYT-Ahxh-Hynic (not fully specified)
T16 chain: PLGLYT

[17] = molecular target: T17, Ac-P-Cha-G˜LL-Ahxh-Ac[C14] (not fully specified)
T17 chain: PXGLL

[18] = molecular target: T18, Ac-PL-NLys-LL-dLeu-Ahxh-Ac[C14]
T18 chain: PLXLLL

[19] = molecular target: T19, Ac-POG˜Hphe-L-Ambh-Hynic
T19 chain: PXGXL

[20] = molecular target: T20, Ac-P-Hcit-G˜Hphe-SA-Ahxh-Hynic (not fully specified)
T20 chain: PXGXSA

[21] = molecular target: T21, Ac-PLG˜Hphe-OL-Ambh-Hynic
T21 chain: PLGXXL

[22] = molecular target: T22, Ac-Hpro-Cit-G˜Hphe-TA-Ahxh-Hynic (not fully specified)
T22 chain: XXGXTA

[23] = molecular target: T23, Ac-PLG˜Pabu-Cit-L-Ahxh-Ac[C14] (not fully specified)
T23 chain: PLGXXL

[24] = molecular target: T24, Ac-P-Cit-G˜Tle-LA-Ahxh-Hynic (not fully specified)
T24 chain: PXGXLA

[25] = molecular target: T25, Ac-PLG˜Hphe-RLA-Ahxh-Hynic
T25 chain: PLGXRLA

[26] = molecular target: T26, Piv-PLG˜LYT-Ahxh-Hynic
T26 chain: PLGLYT

[27] = molecular target: T27, Ac-VRW˜LTA-Ahxh-Hynic (not fully specified)
T27 chain: VRWLTA

[28] = molecular target: T28, Ac-PLG˜LAL-Ahxh-Hynic
T28 chain: PLGLAL

[29] = molecular target: T29, Ac-PLG˜Cit-LA-Ahxh-Ac[C14] (not fully specified)
T29 chain: PLGXLA

[30] = molecular target: T30, Ac-POG˜Hphe-LQ-Ahxh-Hynic
T30 chain: PXGXLQ

[31] = molecular target: T31, Ac-PRQ˜IT-Ahxh-Hynic
T31 chain: PRQIT

[32] = molecular target: T32, Ac-VRW˜LLA-Ahxh-Hynic
T32 chain: VRWLLA

[33] = molecular target: T33, Ac-PLG˜LY-Ahxh-Ac[C14] (not fully specified)
T33 chain: PLGLY

[34] = molecular target: T34, H-NLys-PLG˜LYT-Ahxh-Hynic (not fully specified)
T34 chain: XPLGLYT

[35] = molecular target: T35, Ac-PL-NLys˜S(OBn)-LL-Ahxh-Ac[C14] (not fully specified)
T35 chain: PLXSLL

[36] = molecular target: T36, Ac-PHG˜Hphe-L-Ahxh-Hynic (not fully specified)
T36 chain: PHGXL

[37] = molecular target: T37, Ac-PL-NLys˜Hphe-L-Ahxh-Ac[C14] (not fully specified)
T37 chain: PLXXL

[38] = molecular target: T38, Ac-PLG˜Hphe-YLA-Ahxh-Hynic
T38 chain: PLGXYLA

[39] = molecular target: T39, Ac-PLG˜Hphe-OLR-Ahxh-Hynic
T39 chain: PLGXXLR

[40] = molecular target: T40, Ac-PLG˜Hphe-KL-Ahxh-Hynic
T40 chain: PLGXKL

[41] = molecular target: T41, Ac-NGlu-POG˜Hphe-L-Hynic (not fully specified)
T41 chain: XPXGXL

[42] = molecular target: T42, Ac-POG˜LLA-Ahxh-Hynic
T42 chain: PXGLLA

[43] = molecular target: T43, Ac-PLG˜LL-Ambh-Hynic
T43 chain: PLGLL

[44] = molecular target: T44, Ac-P-Cit-G˜Hphe-L-Ahxh-Hynic (not fully specified)
T44 chain: PXGXL

[45] = molecular target: T45, Hynic-fff-Ahx-PLG˜Hphe-OLEE-OH
T45 chain: FFFXPLGXXLEE

[46] = molecular target: T46, H-DArg-P-Cit-G˜cLeu-LA-Ahxh-Hynic (not fully specified)
T46 chain: RPXGXLA

[47] = molecular target: T47, Ac-P-Cit-G˜Nle-LA-Ahxh-Hynic (not fully specified)
T47 chain: PXGXLA

[48] = molecular target: T48, Ac-PRG˜Hphe-LA-Ahxh-Hynic
T48 chain: PRGXLA

[49] = molecular target: T49, Ac-PLG˜Hphe-Cit-L-Ahxh-Hynic (not fully specified)
T49 chain: PLGXXL

[50] = molecular target: T50, Ac-PLG˜LOL-Ahxh-Hynic (not fully specified)
T50 chain: PLGLXL

[51] = molecular target: T51, Suc-PLG˜LYT-Ahxh-Hynic
T51 chain: PLGLYT

[52] = molecular target: T52, Ac-PL-NLys˜Ahp-YL-Ahxh-Ac[C14] (not fully specified)
T52 chain: PLXXYL

B1: human MMP-9 (protein)
chain: MRTPRCGVPDLGRFQTFEGDLKWHHHNITYWIQNYSEDLPRAVIDDAFARAFALWSAVTPLTFTRVYSRDADIVIQFGVAEHGDGYPFDGKDGLLAHAFPPGPGIQGDAHFDDDELWSLGKGVVVPTRFGNADGAACHFPFIFEGRSYSACTTDGRSDGLPWCSTTANYDTDDRFGFCPSERLYTQDGNADGKPCQFPFIFQGQSYSACTTDGRSDGYRWCATTANYDRDKLFGFCPTRADSTVMGGNSAGELCVFPFTFLGKEYSTCTSEGRGDGRLWCATTSNFDSDKKWGFCPDQGYSLFLVAAHEFGHALGLDHSSVPEALMYPMYRFTEGPPLHKDDVNGIRHLYGPRPEPEPRPPTTTTPQPTAPPTVCPTGPPTVHPSERPTAGPTGPPSAGPTGPPTAGPSTATTVPLSPVDDACNVNIFDAIAEIGNQLYLFKDGKYWRFSEGRGSRPQGPFLIADKWPALPRKLDSVFEERLSKKLFFFSGRQVWVYTGASVLGPRRLDKLGLGADVAQVTGALRSGRGKMLLFSGRRLWRFDVKAQMVDPRSASEVDRMFPGVPLDTHDVFQYREKAYFCQDRFYWRVSSRSELNQVDQVGYVTYDILQCPED
[1]
  Kcat/Km: 1580 M⁻¹ s⁻¹
[2]
  Kcat/Km: 373000 M⁻¹ s⁻¹
[3]
  Kcat/Km: 88000 M⁻¹ s⁻¹
[4]
  Kcat/Km: > 500000 M⁻¹ s⁻¹
[5]
  Kcat/Km: > 500000 M⁻¹ s⁻¹
[6]
  Kcat/Km: 52000 M⁻¹ s⁻¹
[7]
  Kcat/Km: 27000 M⁻¹ s⁻¹
[8]
  Kcat/Km: 162000 M⁻¹ s⁻¹
[9]
  Kcat/Km: 103000 M⁻¹ s⁻¹
[10]
  Kcat/Km: 0 M⁻¹ s⁻¹
[11]
  Kcat/Km: 120000 M⁻¹ s⁻¹
[12]
  Kcat/Km: > 500000 M⁻¹ s⁻¹
[13]
  Kcat/Km: 0 M⁻¹ s⁻¹
[14]
  Kcat/Km: 474000 M⁻¹ s⁻¹
[15]
  Kcat/Km: 83200 M⁻¹ s⁻¹
[16]
  Kcat/Km: 223000 M⁻¹ s⁻¹
[17]
  Kcat/Km: 180000 M⁻¹ s⁻¹
[18]
  Kcat/Km: 0 M⁻¹ s⁻¹
[19]
  Kcat/Km: 22000 M⁻¹ s⁻¹
[20]
  Kcat/Km: 396000 M⁻¹ s⁻¹
[21]
  Kcat/Km: 57700 M⁻¹ s⁻¹
[22]
  Kcat/Km: 160000 M⁻¹ s⁻¹
[23]
  Kcat/Km: 0 M⁻¹ s⁻¹
[24]
  Kcat/Km: 0 M⁻¹ s⁻¹
[25]
  Kcat/Km: 57700 M⁻¹ s⁻¹
[26]
  Kcat/Km: 281000 M⁻¹ s⁻¹
[27]
  Kcat/Km: 29900 M⁻¹ s⁻¹
[28]
  Kcat/Km: 7140 M⁻¹ s⁻¹
[29]
  Kcat/Km: 34000 M⁻¹ s⁻¹
[30]
  Kcat/Km: 84800 M⁻¹ s⁻¹
[31]
  Kcat/Km: 1700 M⁻¹ s⁻¹
[32]
  Kcat/Km: 72200 M⁻¹ s⁻¹
[33]
  Kcat/Km: 336000 M⁻¹ s⁻¹
[34]
  Kcat/Km: 149000 M⁻¹ s⁻¹
[35]
  Kcat/Km: 271000 M⁻¹ s⁻¹
[36]
  Kcat/Km: 4430 M⁻¹ s⁻¹
[37]
  Kcat/Km: 289000 M⁻¹ s⁻¹
[38]
  Kcat/Km: 201000 M⁻¹ s⁻¹
[39]
  Kcat/Km: 22100 M⁻¹ s⁻¹
[40]
  Kcat/Km: 93400 M⁻¹ s⁻¹
[41]
  Kcat/Km: 613 M⁻¹ s⁻¹
[42]
  Kcat/Km: 187000 M⁻¹ s⁻¹
[43]
  Kcat/Km: 36300 M⁻¹ s⁻¹
[44]
  Kcat/Km: 33300 M⁻¹ s⁻¹
[45]
  Kcat/Km: 1740 M⁻¹ s⁻¹
[46]
  Kcat/Km: 0 M⁻¹ s⁻¹
[47]
  Kcat/Km: 116000 M⁻¹ s⁻¹
[48]
  Kcat/Km: > 500000 M⁻¹ s⁻¹
[49]
  Kcat/Km: 171000 M⁻¹ s⁻¹
[50]
  Kcat/Km: 39400 M⁻¹ s⁻¹
[51]
  Kcat/Km: 81000 M⁻¹ s⁻¹
[52]
  Kcat/Km: 0 M⁻¹ s⁻¹

B2: MMP-2 (protein)
chain: APSPIIKFPGDVAPKTDKELAVQYLNTFYGCPKESCNLFVLKDTLKKMQKFFGLPQTGDLDQNTIETMRKPRCGNPDVANYNFFPRKPKWDKNQITYRIIGYTPDLDPETVDDAFARAFQVWSDVTPLRFSRIHDGEADIMINFGRWEHGDGYPFDGKDGLLAHAFAPGTGVGGDSHFDDDELWTLGEGQVVRVKYGNADGEYCKFPFLFNGKEYNSCTDTGRSDGFLWCSTTYNFEKDGKYGFCPHEALFTMGGNAEGQPCKFPFRFQGTSYDSCTTEGRTDGYRWCGTTEDYDRDKKYGFCPETAMSTVGGNSEGAPCVFPFTFLGNKYESCTSAGRSDGKMWCATTANYDDDRKWGFCPDQGYSLFLVAAHEFGHAMGLEHSQDPGALMAPIYTYTKNFRLSQDDIKGIQELYGASPDIDLGTGPTPTLGPVTPEICKQDIVFDGIAQIRGEIFFFKDRFIWRTVTPRDKPMGPLLVATFWPELPEKIDAVYEAPQEEKAVFFAGNEYWIYSASTLERGYPKPLTSLGLPPDVQRVDAAFNWSKNKKTYIFAGDKFWRYNEVKKKMDPGFPKLIADAWNAIPDNLDAVVDLQGGGHSYFFKGAYYLKLENQSLKSVKFGSIKSDWLGC
[1]
  Kcat/Km: 0 M⁻¹ s⁻¹
[2]
  Kcat/Km: 461000 M⁻¹ s⁻¹
[3]
  Kcat/Km: 68600 M⁻¹ s⁻¹
[4]
  Kcat/Km: > 500000 M⁻¹ s⁻¹
[5]
  Kcat/Km: 396000 M⁻¹ s⁻¹
[6]
  Kcat/Km: 401000 M⁻¹ s⁻¹
[7]
  Kcat/Km: 567000 M⁻¹ s⁻¹
[8]
  Kcat/Km: 93000 M⁻¹ s⁻¹
[9]
  Kcat/Km: 119000 M⁻¹ s⁻¹
[10]
  Kcat/Km: 0 M⁻¹ s⁻¹
[11]
  Kcat/Km: 103000 M⁻¹ s⁻¹
[12]
  Kcat/Km: > 500000 M⁻¹ s⁻¹
[13]
  Kcat/Km: 189 M⁻¹ s⁻¹
[14]
  Kcat/Km: 591000 M⁻¹ s⁻¹
[15]
  Kcat/Km: 76300 M⁻¹ s⁻¹
[16]
  Kcat/Km: 186000 M⁻¹ s⁻¹
[17]
  Kcat/Km: 24700 M⁻¹ s⁻¹
[18]
  Kcat/Km: 0 M⁻¹ s⁻¹
[19]
  Kcat/Km: 77700 M⁻¹ s⁻¹
[20]
  Kcat/Km: 293000 M⁻¹ s⁻¹
[21]
  Kcat/Km: 42700 M⁻¹ s⁻¹
[22]
  Kcat/Km: 99600 M⁻¹ s⁻¹
[23]
  Kcat/Km: 0 M⁻¹ s⁻¹
[24]
  Kcat/Km: 164 M⁻¹ s⁻¹
[25]
  Kcat/Km: 64000 M⁻¹ s⁻¹
[26]
  Kcat/Km: 569000 M⁻¹ s⁻¹
[27]
  Kcat/Km: 14400 M⁻¹ s⁻¹
[28]
  Kcat/Km: 4380 M⁻¹ s⁻¹
[29]
  Kcat/Km: 16300 M⁻¹ s⁻¹
[30]
  Kcat/Km: > 250000 M⁻¹ s⁻¹
[31]
  Kcat/Km: 898 M⁻¹ s⁻¹
[32]
  Kcat/Km: 43000 M⁻¹ s⁻¹
[33]
  Kcat/Km: 283000 M⁻¹ s⁻¹
[34]
  Kcat/Km: 85100 M⁻¹ s⁻¹
[35]
  Kcat/Km: 165000 M⁻¹ s⁻¹
[36]
  Kcat/Km: 22100 M⁻¹ s⁻¹
[37]
  Kcat/Km: 465000 M⁻¹ s⁻¹
[38]
  Kcat/Km: 221000 M⁻¹ s⁻¹
[39]
  Kcat/Km: 46600 M⁻¹ s⁻¹
[40]
  Kcat/Km: 78900 M⁻¹ s⁻¹
[41]
  Kcat/Km: 265 M⁻¹ s⁻¹
[42]
  Kcat/Km: > 500000 M⁻¹ s⁻¹
[43]
  Kcat/Km: 33600 M⁻¹ s⁻¹
[44]
  Kcat/Km: 161000 M⁻¹ s⁻¹
[45]
  Kcat/Km: 11600 M⁻¹ s⁻¹
[46]
  Kcat/Km: 77 M⁻¹ s⁻¹
[47]
  Kcat/Km: 174000 M⁻¹ s⁻¹
[48]
  Kcat/Km: > 500000 M⁻¹ s⁻¹
[49]
  Kcat/Km: 157000 M⁻¹ s⁻¹
[50]
  Kcat/Km: 91400 M⁻¹ s⁻¹
[51]
  Kcat/Km: 141000 M⁻¹ s⁻¹
[52]
  Kcat/Km: 0 M⁻¹ s⁻¹
